Data on seven molecules can be found in US20200308290A1 (AbbVie / Abbott, published 2020).

By Kd is commonly meant the concentration at which binding is half-saturated.

Like-named read-outs stand apart in the source and are kept apart here.

The target of assay [1] is T1, human CD25 (human, UniProt P01589 22-213, limits assumed).
T1 construct: Recombinant soluble human CD25, coated on plates (ELISA) or injected over captured antibody (BIAcore); also called hCD25; IL2-R alpha
T1 sequence (looked up): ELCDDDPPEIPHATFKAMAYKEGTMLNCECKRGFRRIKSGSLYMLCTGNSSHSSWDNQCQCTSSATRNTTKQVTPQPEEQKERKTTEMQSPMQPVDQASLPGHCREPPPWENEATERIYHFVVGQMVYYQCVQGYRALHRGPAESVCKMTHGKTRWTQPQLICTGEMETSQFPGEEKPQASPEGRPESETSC
Description: competition ELISA vs biotinylated daclizumab, fold over wild type.

In assay [2] the target is T1, human CD25. The experiment in a line: SPR (BIAcore).
Assay [3] has as its target T1, human CD25. The experiment in a line: SPR (BIAcore). This is another data set of the same source.
In assay [4] the target is T1, human CD25. The experiment in a line: competition ELISA vs biotinylated daclizumab, fold over wild type. This is another data set of the same source. In general terms: In an ELISA, binding on a coated surface is turned into a signal by an enzyme label.
In another assay the target is T2, cynomolgous monkey CD25 (cynomolgous monkey).
T2 construct: also called cmCD25; cm
The experiment in a line: SPR (BIAcore), cynomolgous CD25.

The next assay concerns the target T3, human CD25 on cells (human, UniProt P01589 22-272).
T3 sequence (looked up): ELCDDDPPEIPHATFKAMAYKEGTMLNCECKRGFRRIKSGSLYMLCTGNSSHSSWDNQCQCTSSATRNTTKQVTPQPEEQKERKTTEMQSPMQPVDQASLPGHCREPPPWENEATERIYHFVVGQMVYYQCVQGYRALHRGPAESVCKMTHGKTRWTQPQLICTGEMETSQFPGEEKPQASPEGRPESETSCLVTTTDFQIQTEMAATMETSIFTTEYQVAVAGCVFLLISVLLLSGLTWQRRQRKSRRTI
The experiment in a line: cell-based or functional assay.

B1: Variant C9 (antibody, name in Kabat numbering, V domains shown)
VH: QVQLVQSGAEVKKPGSSVKVSCKASGYTFTSYRMHWVRQAPGQGLEWIGYIRPKRGYTQYNQKFKDKATITADESTNTAYMELSSLRSEDTAVYYCARGGGVFDYWGQGTLVTVSS
VL: DIQMTQSPSTLSASVGDRVTITCSASSSISYMHWYQQKPGKAPKLLIYTTSNLASGVPARFSGSGSGTEFTLTISSLQPDDFATYYCHQRSTYPLTFGQGTKVEVK
notes: Isotype as printed: G1 fa
Molecule B1 yielded an ELISA fold improvement with human CD25 [1] of 3.97 fold. The Kd with human CD25 [2] is 0.181 nM.

B2: Variant C35 (antibody, name in Kabat numbering, V domains shown)
VH: QVQLVQSGAEVKKPGSSVKVSCKASGYTFTSYRMHWVRQAPGQGLEWMGYIKPSRGYTEYNQKFKDKATITADESTNTAYMELSSLRSEDTAVYYCARGGGVFDYWGQGTLVTVSS
VL: DIQMTQSPSTLSASVGDRVTITCSASSSISYMHWYQQKPGKAPKLLIYTTSELASGVPARFSGSGSGTEFTLTISSLQPDDFATYYCHQRSTYPLTFGQGTKVEVK
notes: Isotype as printed: G2M3.QL
For the molecule B2, in the assay with human CD25 [3], the dissociation constant Kd is 0.034 nM. Besides, the ELISA fold improvement with human CD25 [4] was 7 fold. The molecule further came in with a Kd with cynomolgous monkey CD25 of 0.188 nM. Moreover, in the assay with human CD25 on cells, the “Kit225 (fold improvement in inhibition of IL2-induced Kit225 proliferation)” value worked out at 3 fold and the “PBMC (fold improvement in inhibition of IL2-induced PHA blast proliferation)” value was found to be 7.2 fold.

B3: Variant C38 (antibody, name in Kabat numbering, V domains shown)
VH: QVQLVQSGAEVKKPGSSVKVSCKASGYTFTSYRMHWVRQAPGQGLEWMGYISPRKGYTEYNQKFKDKATITADESTNTAYMELSSLRSEDTAVYYCARGGGVFDYWGQGTLVTVSS
VL: DIQMTQSPSTLSASVGDRVTITCSASSSISYMHWYQQKPGKAPKLLIYTTSNLASGVPARFSGSGSGTEFTLTISSLQPDDFATYYCHQRSTYPLTFGQGTKVEVK
notes: Isotype as printed: G2M3.QL
With B3, the Kd with human CD25 [3] is 0.0095 nM; with cynomolgous monkey CD25, 0.1 nM. Besides, in the assay with human CD25 [4], the ELISA fold improvement was determined as 8.2 fold. Moreover, the “Kit225 (fold improvement in inhibition of IL2-induced Kit225 proliferation)” value in the assay with human CD25 on cells stood at 3.6 fold. In addition, the “PBMC (fold improvement in inhibition of IL2-induced PHA blast proliferation)” value with human CD25 on cells amounted to 5.8 fold.

B4: Variant C40 (antibody, name in Kabat numbering, V domains shown)
VH: QVQLVQSGAEVKKPGSSVKVSCKASGYTFTSYRMHWVRQAPGQGLEWMGYISPRKGYTEYNQKFKDKATITADESTNTAYMELSSLRSEDTAVYYCARGGGVFDYWGQGTLVTVSS
VL: DIQMTQSPSTLSASVGDRVTITCSASSSISYMHWYQQKPGKAPKLLIYTTSELASGVPARFSGSGSGTEFTLTISSLQPDDFATYYCHQRSTYPLTFGQGTKVEVK
notes: Isotype as printed: G2M3.QL
In the case of B4, the figures for the Kd with human CD25 [3] and with cynomolgous monkey CD25 were 0.012 nM and 0.074 nM, respectively. In addition, the ELISA fold improvement with human CD25 [4] is 6.8 fold. For the same molecule, the “PBMC (fold improvement in inhibition of IL2-induced PHA blast proliferation)” value with human CD25 on cells was 7.7 fold.

B5: Variant C10 (antibody, name in Kabat numbering, V domains shown)
VH: QVQLVQSGAEVKKPGSSVKVSCKASGYTFTSYRMHWVRQAPGQGLEWIGYIRPRRGYTQYNQKFKDKATITADESTNTAYMELSSLRSEDTAVYYCARGGGVFDYWGQGTLVTVSS
VL: DIQMTQSPSTLSASVGDRVTITCSASSSISYMHWYQQKPGKAPKLLIYTTSNLASGVPARFSGSGSGTEFTLTISSLQPDDFATYYCHQRSTYPLTFGQGTKVEVK
notes: Isotype as printed: G1 fa
On to B5, for which, in the assay with human CD25 [1], the ELISA fold improvement was found to be 3.91 fold. This molecule also had a Kd in the assay with human CD25 [2] of 0.244 nM.

B6: Variant C12 (antibody, name in Kabat numbering, V domains shown)
VH: QVQLVQSGAEVKKPGSSVKVSCKASGYTFTSYRMHWVRQAPGQGLEWIGYISPRRGYTQYNQKFKDKATITADESTNTAYMELSSLRSEDTAVYYCARGGGVFDYWGQGTLVTVSS
VL: DIQMTQSPSTLSASVGDRVTITCSASSSISYMHWYQQKPGKAPKLLIYTTSNLASGVPARFSGSGSGTEFTLTISSLQPDDFATYYCHQRSTYPLTFGQGTKVEVK
notes: Isotype as printed: G1 fa
Turning to B6, the ELISA fold improvement with human CD25 [1] was found to be 3.98 fold. The molecule further showed a Kd in the assay with human CD25 [2] of 0.155 nM.

B7: Variant C11 (antibody, name in Kabat numbering, V domains shown)
VH: QVQLVQSGAEVKKPGSSVKVSCKASGYTFTSYRMHWVRQAPGQGLEWIGYISPKRGYTQYNQKFKDKATITADESTNTAYMELSSLRSEDTAVYYCARGGGVFDYWGQGTLVTVSS
VL: DIQMTQSPSTLSASVGDRVTITCSASSSISYMHWYQQKPGKAPKLLIYTTSNLASGVPARFSGSGSGTEFTLTISSLQPDDFATYYCHQRSTYPLTFGQGTKVEVK
notes: Isotype as printed: G1 fa
For B7, the ELISA fold improvement in the assay with human CD25 [1] stood at 3.47 fold. The molecule further gave a dissociation constant Kd with human CD25 [2] of 0.138 nM.
